The text below walks through data of US7919262B2, “14-3-3 proteins for diagnosis of Parkinson's disease” (The UAB Research Foundation, priority 2007, dated 2011).

The chains are these.
B1: 14-3-3ε: 14-3-3 polypeptide ε isoform, overexpressed from expression vector (protein, UniProt P62258 1-255, looked up)
14-3-3 protein epsilon: MDDREDLVYQAKLAEQAERYDEMVESMKKVAGMDVELTVEERNLLSVAYKNVIGARRASWRIISSIEQKEENKGGEDKLKMIREYRQMVETELKLICCDILDVLDKHLIPAANTGESKVFYYKMKGDYHRYLAEFATGNDRKEAAENSLVAYKAASDIAMTELPPTHPIRLGLALNFSVFYYEILNSPDRACRLAKAAFDDAIAELDTLSEESYKDSTLIMQLLRDNLTLWTSDMQGDGEEQNKEALQDVEDENQ
B2: 14-3-3θ: 14-3-3 polypeptide θ isoform, overexpressed from V5/His-tagged pcDNA3.1 vector (or as transgene in C. elegans) (protein, UniProt P27348 1-245, looked up)
14-3-3 protein theta: MEKTELIQKAKLAEQAERYDDMATCMKAVTEQGAELSNEERNLLSVAYKNVVGGRRSAWRVISSIEQKTDTSDKKLQLIKDYREKVESELRSICTTVLELLDKYLIANATNPESKVFYLKMKGDYFRYLAEVACGDDRKQTIDNSQGAYQEAFDISKKEMQPTHPIRLGLALNFSVFYYEILNNPELACTLAKTAFDEAIAELDTLNEDSYKDSTLIMQLLRDNLTLWTSDSAGEECDAAEGAEN
modifications: V5/His tag
B3: 14-3-3ζ: 14-3-3 polypeptide ζ isoform, overexpressed from expression vector (protein, UniProt P63104 1-245, looked up)
14-3-3 protein zeta/delta: MDKNELVQKAKLAEQAERYDDMAACMKSVTEQGAELSNEERNLLSVAYKNVVGARRSSWRVVSSIEQKTEGAEKKQQMAREYREKIETELRDICNDVLSLLEKFLIPNASQAESKVFYLKMKGDYYRYLAEVAAGDDKKGIVDQSQQAYQEAFEISKKEMQPTHPIRLGLALNFSVFYYEILNSPEKACSLAKTAFDEAIAELDTLSEESYKDSTLIMQLLRDNLTLWTSDTQGDEAEAGEGGEN

In this test the test system is M17 cells. In words: MPP+ toxicity in stably transfected cell lines, LDH release. The format is cell-based, human. Conditions: stable overexpression; MPP+ 0-10 mM; 24 hours. The method, then: Cell lines stably-transfected with either a 14-3-3 isoform or empty vector were treated with varying concentrations of MPP+ for 24 hours. Cell death was assayed by LDH release into the culture media. LDH release into media was normalized to total LDH release for each well. Lines overexpressing 14-3-3θ (FIG. 9A), 14-3-3ε (FIG. 9B), or 14-3-3γ (FIG. 9C) were more resistant to MPP+ in a dose-dependent manner compared to control stable cells. […] Results reflect two to three independent experiments with at least two replicates per experiment. **p<0.01, ***p<0.001 (Bonferroni's multiple comparison test).
The 14-3-3 expressing M17 clones were also tested for resistance to the neurotoxin 1-methyl-4-phenylpyridinium ion (MPP+), which is a metalbolite of 1-methyl-4-phenyl-1,2,3,6-tetrahydropyridine (MPTP). M17 cells expressing the 14-3-3 isoforms were prepared as described. M17 cells were treated with MPP+ (0-10 mM) for 24 hours (FIGS. 9A-G). Cell death was assayed by LDH release into the culture media as described above.
Primers against each of the human 14-3-3 isoforms were designed using Primer3. Primers against 14-3-3β (NM_018753) were 5′ […] 3′ (forward; SEQ ID NO. 9) and 5′ […] 3′ (reverse; SEQ ID NO. 10). Primers against 14-3-3ε (NM_009536) were 5′ […] 3′ (forward; SEQ ID NO. 11) and 5′ […] 3′ (reverse; SEQ ID NO. 12). Primers against 14-3-3γ (NM_018871) were 5′ […] 3′ (forward; SEQ ID NO. 13) and 5′ […] 3′ (reverse; SEQ ID NO. 14). Primers against 14-3-3η (NM_011738) were 5′ […] 3′ (forward; SEQ ID NO. 15) and 5′ […] 3′ (reverse; SEQ ID NO. 16). Primers against 14-3-3θ (NM_011739) were 5′ […] 3′ (forward; SEQ ID NO. 17) and 5′ […] 3′ (reverse; SEQ ID NO. 18). Primers against 14-3-3σ (NM_018754) were 5′ […] 3′ (forward; SEQ ID NO. 19) and 5′ […] 3′ (reverse; SEQ ID NO. 20). Primers against 14-3-3ζ(NM_011740) were 5′ […] 3′ (forward; SEQ ID NO. 21) and 5′ […] 3′ (reverse; SEQ ID NO. 22). Primers against GAPDH were 5′ tggtgaagcaggeatctga 3′ (forward; SEQ ID NO. 23) and 5′ […] 3′ (reverse; SEQ ID NO. 24) and were used to normalize PCR results. • α-syn aggregation assay H4 cells were transfected with synphilin, α-syn/green fluorescent protein (synT), and either empty vector control or a 14-3-3 isoform using Superfect transfection reagent (Qiagen). 24 hours after transfection, cells were fixed with 4% paraformaldehyde and immunostained with a monoclonal antibody against α-syn (BD Transduction) and a secondary Alexa 488-conjugated goat anti-mouse antibody (Molecular Probes). All cells stained for α-syn were scored as positive or negative for α-syn aggregates, with the rater blind to experimental condition. • α-syn toxicity assay H4 cells were transfected with α-syn and either empty vector control or a 14-3-3 isoform using Superfect transfection reagent (Qiagen). 24 hours after transfection, toxicity was measured by the amount of adenylate kinase released into the media using the ToxiLight™ kit (Cambrex). • Creation of stable cell lines Each 14-3-3 isoform was subcloned into the mammalian expression vector mcDNA3.1/V5-His (Invitrogen). BE(2)-M17 cells were transfected with each isoform or empty vector using Superfect, and stably-transfected cells were selected for in the presence of G418. […] Protein concentrations of supernatants were determined by the bicinchoninic acid assay (BCA; Pierce, Rockford, Ill.). […]
Turning to “14-3-3γ: 14-3-3 polypeptide γ isoform, overexpressed from expression vector”, the “protection against MPP+ toxicity (LDH release)” value (from here on “protection against MPP+ toxicity”) is listed as “reduced toxicity”.

As to B1, the “protection against MPP+ toxicity” value is listed as “reduced toxicity”.

With B2, the “protection against MPP+ toxicity” value is recorded as “reduced toxicity”.

In the case of B3, the “protection against MPP+ toxicity” value was “did not show any significant protection”.
